In IntAct's records for PubMed 24413684:

B1: Programmed cell death protein 4 (Homo sapiens), Q53EL6 (parent)
chain: MDVENEQILNVNPADPDNLSDSLFSGDEENAGTEEIKNEINGNWISASSINEARINAKAKRRLRKNSSRDSGRGDSVSDSGSDALRSGLTVPTSPKGRLLDRRSRSGKGRGLPKKGGAGGKGVWGTPGQVYDVEEVDVKDPNYDDDQENCVYETVVLPLDERAFEKTLTPIIQEYFEHGDTNEVAEMLRDLNLGEMKSGVPVLAVSLALEGKASHREMTSKLLSDLCGTVMSTTDVEKSFDKLLKDLPELALDTPRAPQLVGQFIARAVGDGILCNTYIDSYKGTVDCVQARAALDKATVLLSMSKGGKRKDSVWGSGGGQQSVNHLVKEIDMLLKEYLLSGDISEAEHCLKELEVPHFHHELVYEAIIMVLESTGESTFKMILDLLKSLWKSSTITVDQMKRGYERIYNEIPDINLDVPHSYSVLERFVEECFQAGIISKQLRDLCPSRGRKRFVSEGDGGRLKPESY

Variants of: B1
Details: with if4a1_human EIF4A1, P60842
if4a1_human EIF4A1, P60842, sequence (P60842 whole entry): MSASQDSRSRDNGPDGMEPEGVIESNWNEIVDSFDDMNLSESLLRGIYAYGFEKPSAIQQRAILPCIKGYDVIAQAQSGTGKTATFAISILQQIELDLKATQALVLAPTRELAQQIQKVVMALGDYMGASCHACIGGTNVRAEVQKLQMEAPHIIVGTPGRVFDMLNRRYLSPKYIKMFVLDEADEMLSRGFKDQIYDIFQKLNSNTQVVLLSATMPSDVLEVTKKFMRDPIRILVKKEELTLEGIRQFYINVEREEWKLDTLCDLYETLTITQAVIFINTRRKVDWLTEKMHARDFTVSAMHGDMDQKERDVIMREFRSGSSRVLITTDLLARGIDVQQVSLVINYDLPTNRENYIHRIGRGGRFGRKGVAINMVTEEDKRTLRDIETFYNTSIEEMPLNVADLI

Row | Variant | effect of a mutation on the interaction
1 | D253A;D418A | decreasing interaction
2 | D418A | decreasing interaction
